Reference: patent publication US20020009726A1 (LA JOLLA CANCER RESEARCH FOUNDATION, published 2002)

Experiments:
[1] = target: T1, LexA fusion of Bcl-2 (positions 83-218) (UniProt P0A7C2 1-202; P10415 83-218); experiment: yeast two-hybrid, growth on histidine-deficient medium (HIS3 reporter)
T1 construct: also called Bcl-2 (83-218)
Experimental: (§1) The 166 clones were cured of LexA/CD40-encoding plasmids by growing the cells in tryptophan-containing medium. […] The mated cells were selected for growth in medium lacking tryptophan and leucine to obtain cells that contained both a pACT-B cell clone and a LexA-fusion protein. Colonies were transferred to histidine-deficient plates or histidine-containing media with X-Gal. Colonies expressing β-gal activity were identified using a plate assay and a filter assay. The plate assay was performed on the X-Gal containing plates -12 hr after plating according to previous methods (see Chien et al., Proc. Natl. Acad. Sci., USA 88:9578-9582 (1991), which is incorporated herein by reference). The β-gal filter assay was performed after 1 hr culture as described previously (Sato et al., supra, 1994; Breeden and Nasmyth, Cold Spring Harbor Symp. Quant. biol. 50:643-650 (1985), which is incorporated herein by reference).

[2] = target: LexA fusion of Ha-Ras (V12) (UniProt P0A7C2 1-202; P01112 1-189, limits assumed); experiment: as above
Experimental: as §1

[3] = target: T2, LexA fusion of Lamin-C (UniProt P0A7C2 1-202; P02545 66-230); experiment: yeast two-hybrid, beta-galactosidase (lacZ reporter)
T2 sequence (looked up): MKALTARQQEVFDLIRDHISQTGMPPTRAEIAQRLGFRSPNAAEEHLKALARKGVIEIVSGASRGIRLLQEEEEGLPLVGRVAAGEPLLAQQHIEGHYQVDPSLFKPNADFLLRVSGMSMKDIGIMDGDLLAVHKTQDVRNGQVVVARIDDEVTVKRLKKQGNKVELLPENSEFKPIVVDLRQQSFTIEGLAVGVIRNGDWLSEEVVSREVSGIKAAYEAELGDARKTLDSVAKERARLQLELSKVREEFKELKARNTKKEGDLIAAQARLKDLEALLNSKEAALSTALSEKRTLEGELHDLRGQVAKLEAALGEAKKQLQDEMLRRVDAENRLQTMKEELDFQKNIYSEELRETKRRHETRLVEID
Experimental: as §1

Measured: binding result

B1: CAP-1 (pACT2229/GAL4 fusion) (other, not shown: small tags and cut ends)
chain: HDQMLSVHDIRLADMDLRFQVLETASYNGVLIWKIRDYKRRKQEAVMGKTLSLYSQPFYTGYFGYKMCARVYLNGDGMGKGTHLSLFFVIMRGEYDALLPWPFKQKVTLMLMDQGSSRRHLGDAFKPDPNSSSFKKPTGEMNIASGCPVFVAQTVLENGTYIKDDTIFIKVIVDTSDLPDP
notes: Yeast two-hybrid prey; also called pACT121; CD40 associated protein-1
no binding: [1] | [2] | [3]
